Experimental data published in patent US20200147199A1.
Where a chain is given by its changes, count along the chain named.

B1: Z004 (MEX18_89) (antibody, V domains shown)
VH: EVQLLESGGGLVQPGGSLRLTCATSGFTFRDYAMSWVRQAPGKGLEWVSSYSGIDDSTYYADSVKGRFTISRDNSKSTLSLHMNSLRAEDSALYFCAKDRGPRGVGELFDSWGQGTLVTVSS
VL: DIQMTQSPSTLSASVGDRVTITCRASQSISKWLAWYQQKPGKAPKLLIYTTSTLKSGVPSRFSGSGSGTEFTLTISSLQPDDFATYYCQHFYSVPWTFGQGTKVEIK
B2: Z036 (BRA112_91) (antibody, V domains shown)
VH: EVQLLESGGDLVQPGGSLRLSCAASGFTFSTYGMAWVRQAPGKGLEWLSSISSVDDSKYYAASVKGRFTISRDNSRNTLYLHMNSLRVDDTAVYYCAKDRIPHGLGELYANWGQGTLVTVSS
VL: DIQMTQSPSTLSASVGDRVTITCRASQSISGWLAWYQQKPGKAPRLLMHKASNLYSGVPSRFSGSGSGTEFTLTISSLQPDDFATYYCQHYHSYPYTFGQGTKVEIK
B3: Z013 (MEX18_84) (antibody, V domains shown)
VH: EVQLLESGGGLVQPGGSLRLSCAASGFTFTSYAMNWVRQAPGKGLEWVSGIGGRGAIAGDGSIYYADSVKGRFTISRDNSKNIVYLQMNGLRVEDTAVYYCAKDRVAFDGFHVWGQGTLVTVSS
VL: DIQMTQSPPTLSASVGDRVTITCRASQSISSWLAWYQQKPGKAPKLLIYKASSLESGVPSRFSGSGSGTEFSLTISSLQPEDFATYYCQQYNSYPWTFGQGTKVEIK
B4: Z007 (MEX105_50) (antibody, V domains shown)
VH: EVQLLESGGGLVRPGGSLRLSCTASGFTFRRYAMAWVRQAPGKGLEWVSLIYDGDDSTYYAKSVKGRFAISRDNSKNTLSLQMNSLRAEDTAVYYCVKDRDNGWSSIVDWGQGTLVTVSS
VL: DIQMTQSPSTLSASVGDRVTITCRASHSISGWLAWYQQKPGKAPKLLIYQASILESGVPSRFSGSGSGTEFTLTIGSLQPEDFATYFCQQYSTFWTFGQGTKVEIK
B5: Z009 (MEX105_64) (antibody, V domains shown)
VH: B4 VH with D53N, K62E, A69T, I70V, K76Q, V93I, K98R
VL: B4 VL with H27R, S28T, S30G, G31S, S56G, G66V, G76R
B6: Z008 (MEX105_60) (antibody, V domains shown)
VH: B4 VH with Y32F, Y52W, D53N, K62E, K65R, A69T, K76H, N84R, V93I
VL: B4 VL with H27Q, S28T, S30G, G31N, I53V, G76S
B7: Z050 (BRA138_28) (antibody, V domains shown)
VH: QVQLVQSGAEVKKPGSSVKVSCKAPGGTFSRYSIAWVRQAPGQGLEWMGGINPTFTTPNYAQKFQGRVTITADESTNTAYLDLSSLRSEDTAVYYCARFRYYYESGGYSDASPYYLDYWGQGTLVTVSS
VL: EIVLTQSPATLSLSPGERVTLSCRASQSVSSYLAWYQQKPGQAPRLLIYDASNRATGIPARFTGSGSGTDFTLTISSLEPEDFAVYYCQQRSNWPLTFGGGTKVEIK
B8: Z057 (MEX84_p4-54) (antibody, V domains shown)
VH: EVQLVQSGAEVKRPGASVKVSCKASGYTFADYYIHWVRQAPGLGLEWMGWINPKTGFSHYEQTFQGRVTMARDTSIPAAYMELSSLKSDDTAIYYCARGGRINVAEALRYWGQGSLVTVSS
VL: DIQMTQSPSTLSTFVGDRVTITCRASQTIGDWLAWYQQKPGKAPKLLISKATRLESGVPSRFSGSGSETEFSLTINSLQPDDVAAYYCQQYMSYPWTFGQGTKLEIK
B9: Z056 (MEX84_p2-94) (antibody, V domains shown)
VH: EVQLVQSGAEVKKPGASVKVSCKASGNTFMGYYFHWVRQAPGQGLEWMGWINPNSGHANIAQTFQGRVTMTRDPSITTAYMELSRLRSDDTAVFYCARGGMLGQLWALDNWGQGTLVTVSS
VL: DIQMTQSPSTLSASVGDRVTITCRASQSISHWLAWYQQRPGEAPKLLIYQASTLESGVPSRFSGSGSGTEFTLSISSLQPDDFATYYCQQYQSSPYTFGQGTKLEIK
B10: Z017 (MEX84_p2-58) (antibody, V domains shown)
VH: QVQLVQSGAGMRKPGASVKVSCKASGYSFNDYYIHWVRQAPGQGLEWMGWINPKSGFTNYAQRFQGRVTMTGDTSNSVAYMELTRLTSDDTAVYYCARGGRINAPLGFDPWGQGTLVTVSS
VL: EIVLTQSPDTLSLSPGETATLSCRASQSIGSISLGWYQQKFGQAPRLLIYGASTRATGTPDRFSGSGSETDFTLTISRLEPEDSAVYYCQQYVSSPLRFGGGTKVEIK
B11: Z062 (BRA112_70) (antibody, V domains shown)
VH: EVQLVESGGGVVQPGRSLRLSCAASGFSFSSHAMYWVRQAPGKGLEWVAIVSYDGSTKNYADSVKGRFTISRDNSKNTIYLHLNSLRAEDTAVYFCAREVDGIYGYLHYWGQGTLVTVSS
VL: EIVLTQSPATLSLSPGERATLSCRARQNVRNFLAWYQQKPGQAPRLLIYDASNRATDIPARFSGSGSGTDFTLTISSLEPEDFAVYYCQQRSYSITFGQGTRLEIK
B12: Z016 (MEX84_p2-55) (antibody, V domains shown)
VH: QVQLVQSGAEVKKPGASVKLSCKASGYTFTSYYVHWVRQAPGQGLEWMGIINPGNNFVSFAQNFYDRATMTRDTSTNTVYMELTNLQSEDTAVYYCARTLVAPSAQSMYYFDFWGQGTLVTVSS
VL: EIVLTQSPGTLSLSPGERGTLSCRASQYITTGHFAWYQQKPGRAPRLLIYGASVRATGVPDRFSGSGAETDFTLTISRLDPEDVGVYYCQQYGSSPVTFGPGTKVDIK
B13: Z002 (MEX18_27) (antibody, V domains shown)
VH: EVQLLESGGGLVQPGGSLRLSCATSGFTFSTYAMSWVRQAPGKGLEWVSSFSGVDDSTYYAESVKGRFTISRDNSKNTVYLQMTRLRAEDTAVYYCAKDRGPRGVGELFDSWGQGTLVTVSS
VL: B1 VL with I21M, S30N, K31R, Y92H
B14: Z003 (MEX18_58) (antibody, V domains shown)
VH: EVQLLESGGGLVQPGGSLRLSCATSGFTFTTFAMSWVRQAPGKGLEWVSSISGADDSTYYAASVKGRFTISRDNSRSTLFLQMNSLRAEDTAVYYCAKDRGPRGVGELFDSWGQGTLVTVSS
VL: B1 VL with K45R, Y92F
B15: Z011 (MEX105_15) (antibody, V domains shown)
VH: EVQLLESGGGLVQPGGSLRLSCAASGFTFRTYAMSWVRQPPGKGLEWVSSISAREDSTYFAASVRGRFTISRDNSKNTLYLQMNNLRAEDTALYYCAKDRLQLGVGELYESWGQGTLVTVSS
VL: B3 VL with P9S, S28N, S30N, K50M, E55Q, S72T, I75V, E81D, Q90H, N92H
B16: Z034 (BRA112_09) (antibody, V domains shown)
VH: EVQLLESGGGLAQPGGSLRLSCETSGFTFRSYGMGWVRQAPGKGLEWVSSIYISGDSTYYAASVKGRFTISRDNSKSTLYLQMDRLTAEDTAVYYCVRDRIQGGFGELYRYWGQGTLVTVSS
VL: DIQMTQSPSTLSASVGDRVTMTCRASQSVNKWLAWYQQKPGKAPKLLIYETSILESGVSSRFSGSGSGTEFTLTISSLQPDDFATYYCQHYHGYPWTFGQGTKVEIK
B17: Z051 (BRA138_59) (antibody, V domains shown)
VH: QVQLQESGPGLVKPSQTLSLTCTVSGVSISSGGYYYSWFRQLPGKGLEWIGHIYYTGNTHYNPSLRSRLTISVDTSKNQFSLKLSSVTAADTARYYCARAWCEYAAYCWFDPWGRGTLVTVSS
VL: EIVLTQSPGTLSLSPGERATLSCRASQSVTSSYLAWYQHKPGQAPRLLIYGASSRAPGIPDRFSGSGSGTDFTLTISRLEPEDFAVYWCQQYGRSPFTFGQGTKLEIK
B18: Z053 (BRA138_65) (antibody, V domains shown)
VH: QLQLQESGPGLVKPSETLSLTCTVSGGSISSYNYYWGWIRQPPGKGLEFIGSIYYTGSTYYNPSLRSRVTISVDTSKNQFSLKLTSVTAADTAVYYCARHGPGMGHNWYFDLWGRGTLVTVSS
VL: EIVLTQSPATLSLSPGERATLSCRASQSISSYLAWYQQKPGQAPRLLIYDASNRAPGIPARFSGSGSGTDFTLTISSLEPEDFAVYYCQQRSTWLTFGGGTKVEIK
B19: Z061 (BRA112_36) (antibody, V domains shown)
VH: EVQLVESGGGVVQPGRSLRLSCAASGFTFSISTIHWVRQAPGKGLEYVVVISHDGNTKYYADSVKGRFIISRDNSKNTVFLQMNSLRPVDTAVYYCARGEVGYFDLWGRGTLVTVSS
VL: EIVLTQSPATLSLSPGERATLSCRASQSVSSFLAWYQQKPGQPPRLLIYDASTRATGIPARFSGSGSGTDFTLTISSLEPEDFAVYYCQQRSNWPPITFGQGTRLEIK
B20: Z005 (MEX18_13) (antibody, V domains shown)
VH: EVQLLESGGGLVQPGGSLRLSCAASGFTFSSYAMSWVRQAPGKGLEWVSSFSGIDDSTWYADSVKGRFTISRDNSKSTLYLQMNSLRAEDTAVYYCAKDRLVRGFAEVLDYWGRGTLVTVSS
VL: DIQMTQSPSSLSASVGDRVTITCRASQDISKYLAWYQQRPGKVPNLLIYTASTLQSGVPSRFSGSGSGTHFTLTISSLQPEDVATYYCQKYNSVPWTFGQGTKVEIK
B21: Z059 (MEX84_p4-34) (antibody, V domains shown)
VH: EVQLVQSGAEVKTPGSSVKVSCKTSGGTFSNFAITWVRQAPGQGLEWMGGIIPLFGITNYTQKFQGRVTITTDESKTTAYMDLSGLRSEDTAVYFCARGRDSSGRLLDHWGQGTLVTVSS
VL: EIVMTQSPATLSVSPGERATLSCRASQTVNRNLAWYQQKPGQAPRLLIYAASARATGVPARFSGSGSGTEFTLTISSLQSEDFVVYYCQQYNNWPPLTFGGGTKLEIK
B22: Z055 (MEX84_p4-61) (antibody, V domains shown)
VH: EVQLVQSGAEVKKPGASVKVSCKASGYTFSGYYIHWLRQAPGQGLEWMGWINSNSGGADSGPRFHGRVTMTRDTSINTAYLELTNLRSDDTAVYYCARRTYYDTRFPYWYFDLWGRGTLVTVSS
VL: AIRMTQSPSSLSASVGDRVTITCRASQDIGSYLNWYQQKPGKAPNVLISAASTLQSGVPSRISGIGSGTDFTLTISSLQPEDFATYYCQQSLSAPYTFGQGTKLEIK
B23: Z052 (BRA138_62) (antibody, V domains shown)
VH: QVQLQESGPGLVKPSQTLSLTCTVSGGSITGGVYYWNWIRHHPGKGLEWIGYMFYSGDTDYNPSLRSRVTISGDTSKNKFSLNLNSVTAADTAVYYCARAGFDYGSPVSAFDIWGQGTLVTVSS
VL: EIVLTQSPATLSLSPGERATLSCRASQSVSSTYLVWYQQKPGQAPRLLIYGASSRATGIPDRFSGSGSGTDFTLTISRLEPEDFAVYFCQQYAHSPRGYTFGQGTKLEIK

Target: T1, ZIKV E Domain III ([..]), polyhistidine-AviTag, produced in HEK-293-6E cells (ZIKV)
Assay: ELISA, biotinylated Z004 on coated ZEDIII, streptavidin-HRP
Settings: remark: other sources report otherwise

| Binder | EC50 [µg/mL] |
| --- | --- |
| B1 | 0.16 |

Target: T1, ZIKV E Domain III ([..]), …
Assay: ELISA on coated ZIKV EDIII
Settings: remark: other sources report otherwise

| Binder | EC50 [µg/mL] |
| --- | --- |
| B2 | 0.0172 |
| B3 | > 10 |
| B4 | 0.0346 |
| B5 | 0.0284 |
| B6 | 0.0326 |
| B7 | 0.0303 |
| B8 | 0.0828 |
| B9 | 0.982 |
| B10 | > 10 |
| B11 | 0.208 |
| B12 | 0.0724 |
| B13 | 0.0252 |
| B14 | 0.0255 |
| B15 | 0.038 |
| B16 | 0.0235 |
| B17 | 1.86 |
| B18 | 1.68 |
| B19 | 0.311 |
| B20 | 0.216 |
| B21 | 0.61 |
| B22 | 1.88 |
| B23 | 0.0131 |
